Test results as given in the supplement of paper PMC9170038.

System: MS2 coat protein
Assay: apparent KD of MS2 coat protein; designed switch direction (-1 OFF switch, 1 ON switch): 1; higher = weaker reporter binding
Method in brief: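 The reported apparent KD is a per-design median over clusters, from curve fits of normalised cluster fluorescence. Protein titrations used SNAP-549-labelled MS2 coat protein, doubled from 0.7 or 1.5 nM to 3 µM, in Tris-HCl pH 7.5 buffer with KCl, MgCl2, BSA, DTT, tRNA and Tween-20, with no input, 200 uM small-molecule ligand, or an oligonucleotide input. The RNA switches were transcribed on Illumina chips by stalled E. coli RNA polymerase.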

[1] = input ligand: microRNA oligo, concentration not stated
[2] = Eterna round: R95, input ligand: FMN 200 uM
[3] = Eterna round: R95, input ligand: microRNA oligo, concentration not stated
[4] = Eterna round: R95, input ligand: none

| Sequence | apparent KD of MS2 coat protein [1] | apparent KD of MS2 coat protein (input ligand: FMN 200 uM) | apparent KD of MS2 coat protein (input ligand: none) | apparent KD of MS2 coat protein [2] | apparent KD of MS2 coat protein [3] | apparent KD of MS2 coat protein [4] |
| --- | --- | --- | --- | --- | --- | --- |
| UGUUGUAUUACAGGAUAUCUAUGAUUUUAAUUUAGAGAAGGGUAUUCACAUGAGGAUCACCCAUGUAUAUACGAGGAAGUUGUG [JMF's solution 63] (Eterna round: R96, puzzle: Same State NG 1) | 40.2 nM | – | – | – | – | – |
| UUAUCUUUCCGAGGAUAUCCAUAUAAUUUACAUGAGGAUCACCCAUGUUAUUGGGAGUUUUUUUAGGAGAAGGCGGUUGUAGAU [JR_SSNG2_Sub051] (Eterna round: R96, puzzle: Same State NG 2) | 61.4 nM | 85.1 nM | 71.1 nM | – | – | – |
| UCUUGGUUUUUGCUCGUUUUUUGUGUUGAACAUGAGGAUCACCCAUGUAUUGUACGGUCCAGUUUAGUAGUGGUCCG [JMF 32] (puzzle: Sensor for hsa-mir-208a) | – | – | – | 26 nM | 13.5 nM | 27 nM |
| AACUGUUUCUGAGGAUAUCAGUAGUAUGCCAAUUGAGAAGGCAGUACAUGAGGAUCACCCAUGUUGUGGUUUGAUAGAAUGAUA [JR_SSNG1_Sub003] (Eterna round: R96, puzzle: Same State NG 1) | 133 nM | 182 nM | 214 nM | – | – | – |
| GGAUGAUUAAUAGGAUAUUAUUUGUAAUUUGGUUAAGAAGGAUUAAUGAUUUAAACGACCUGUUACAUGAGGAUCACCCAUGUU [JR_SSNG1_Sub089] (Eterna round: R96, puzzle: Same State NG 1) | 76.5 nM | – | – | – | – | – |
| UAGAUUCACGUAGGAUAUCGACCUACAUGAGGAUCACCCAUGUUUUUGAAUAGAUUUUUUAGUUACGAGAAGGACGUUAUGUAU [JR_SSNG2_Sub063] (Eterna round: R96, puzzle: Same State NG 2) | 210 nM | 96 nM | 473 nM | – | – | – |
| GGUCGGAACCACAUGAGGAUCACCCAUGUUCCGGAAACGGCACAGGAUAUCUGUCCGAAAAGGUCAGAGAAGGGUGAACCGACC [Fiskers NG3ss - 76] (Eterna round: R96, puzzle: Same State NG 3) | 247 nM | 285 nM | 445 nM | – | – | – |
| UCUUGGUUUUUGCUCGUUUUUUGUGUUGAACAUGAGGAUCACCCAUGUAUUGUACGGUCCGGUUUGGUAAUGGUCCG [JMF 10] (puzzle: Sensor for hsa-mir-208a) | – | – | – | 24.4 nM | 16.1 nM | 27.8 nM |
| AAAACAUGAGGAUCACCCAUGUGUAAAAGAUACCGGAUGGUGCAGGAUAUAUCCCAUUAAAGUGGAUAGAAGGGUGGCAUCAAG [Eternabot solution 46] (Eterna round: R96, puzzle: Same State NG 3) | 32.5 nM | 20.8 nM | 32.1 nM | – | – | – |
| GUGCUACAUGAGGAUCACCCAUGUACAAAUGUACGAGGAUAUGCAUGGGCUAAUGCUGGUGCAGAAGGCGUAGCGC [Pin2Pin #7] (puzzle: Same State 1) | – | – | – | 18 nM | 33.9 nM | 41.5 nM |
| UGGCUCAGACGAGGAUAUAUGUGGUCACAUGAGGAUCACCCAUGUCUCGAGCUUCGGCUCGAGGCAUAGAAGGUGUCUGAGCCA [SSNG2/5-C2] (Eterna round: R96, puzzle: Same State NG 2) | 16 nM | 227 nM | 33.9 nM | – | – | – |
| GCCAUCCAGUGAGGAUAUGGCACCGUUUCGGUGCCAGAAGGCAUGUCAAUUGACAUGAGGAUCACCCAUGUAUUAUGGAUGGCA [JL Fiskers NG1ss - 33 mod 1] (Eterna round: R96, puzzle: Same State NG 1) | 423 nM | 96.2 nM | 1110 nM | – | – | – |
| AUAAGUUCGAUGCUCGUCUCUCCGUACAAACAUGAGGAUCACCCAUGUGGUCAGGAAGUAGCCCGACCAGUAUGGCC [Leedqu] (puzzle: Sensor for hsa-mir-208a) | – | – | – | 29 nM | 24.6 nM | 34 nM |
| GUAUCUACAGGUUGCGAUGCUCGUCUGAUACAUGAGGAUCACCCAUGUUAUAGCCCUGUGCUUGCGCAGGGCUGAUU [Sensor for hsa-mir-208a ( MOD of Tearor v.2 )] (Eterna round: R96, puzzle: Sensor for hsa-mir-208a) | 26.7 nM | 105 nM | 84.6 nM | – | – | – |
| CGCAAAGUGUGAGGAUAUUCACACAUGAGGAUCACCCAUGUGACGGUUCCGGCCAGAGGAGAGCAGGAGAAGGCACAACGCGAG [Eternabot solution 5] (Eterna round: R96, puzzle: Same State NG 2) | 101 nM | 36.1 nM | 120 nM | – | – | – |
| GGUCCAGCCUGAGCUGGACAAAAGCAUGUACAUGAGGAUCACCCAUGUCAUGUACAAGCUUUUUGCUCGUCUUAAGU [Mat - hsa-mir-208a - 86] (Eterna round: R96, puzzle: Sensor for hsa-mir-208a) | 14.1 nM | 625 nM | 687 nM | – | – | – |
| AAUAAGUUCAGCUCGUCUUGCGCCGACUGACAUGAGGAUCACCCAUGUGGAUUCCAAGAGAUCCAUUGGCGUGUUUC [Erisdian] (puzzle: Sensor for hsa-mir-208a) | – | – | – | 37.9 nM | 87.6 nM | 79 nM |
| AAUCGUUUGAUAGGAUAUCGCUAUACAUGAGGAUCACCCAUGUUUACCACGCUGGUUUUUCGUACUGAGAAGGAUUCUGAUGAU [JL JR sub007 mod 7] (Eterna round: R96, puzzle: Same State NG 2) | 30.4 nM | 36.1 nM | 42.5 nM | – | – | – |
| GCGGAGAGGUAAGGAUAUUCAUGGCAUAGACAUGAGGAUCACCCAUGUAGGAGACGAAUUAGAAGGAAGAAGGUACCGGGACGC [AK SSNG2-V2-18.1] (Eterna round: R96, puzzle: Same State NG 2) | 113 nM | 158 nM | 197 nM | – | – | – |
| AGAUCAUGACGAGGAUAUGGAACAUGAGGAUCACCCAUGUAUGUUCCAUAACGCGAAUAAAGAAUCCAGAAGGCGUCGUGGUCA [Mat - Same State NG 2 - JL mod - D30] (Eterna round: R96, puzzle: Same State NG 2) | 78.9 nM | 10.2 nM | 89.1 nM | – | – | – |
| CGGGUGGUUCUAGGAUAUCUAGGAUAUGGACGAGGAUUACCCGAGCAGCAUCAGCGCACCAGAGGAGAGAAGGAGAGUCAUGCG [pwkr ssNG2 2F5 2FMN.9] (Eterna round: R96, puzzle: Same State NG 2) | 72.5 nM | 105 nM | 86.8 nM | – | – | – |
| CUUUUUAGUGCAGGAUAUGAUCAACAUGAGGAUCACCCAUGUGGCGUUGUGAGUAGGGAGAGUGAUCAGAAGGGCGUCUCCGCG [SS-NG2-LRO11] (Eterna round: R96, puzzle: Same State NG 2) | 36.1 nM | 72 nM | 59.9 nM | – | – | – |
| GCUCGACGUGUUGUCUACAUGAGGAUCACCCAUGUAGGUGCGGAGGAUAUCUACGUGCUUUAUGUAGAGAAGGUCGUGUCGAGC [SameState NG3 #87] (Eterna round: R96, puzzle: Same State NG 3) | 55.3 nM | 32.4 nM | 66.4 nM | – | – | – |
| GGAGCCGGCCUAGGAUAUUUCAUAGAAAAACAUGAGGAUCACCCAUGUAGGCCAGAAGGCCUUGGGAAGAAGGAGGUCGGCUCC [Loop Effect - G25] (Eterna round: R96, puzzle: Same State NG 2) | 19.5 nM | 9.45 nM | 31.2 nM | – | – | – |
| GUGGUCAGACAUGAGGAUCACCCAUGUGGAAUAAAUAACACACAGGAUAUCCAAUAUAAAAUAUAGGAGAAGGGUGGAUUGGUG (Eterna round: R96, puzzle: Same State NG 3) | 176 nM | – | – | – | – | – |
| UCUAGACAUGAGGAUCACCCAUGUCAAUAUGACACAGGAUAUCGGUACUCAUAGAGUACGCGAGAAGGGUGACUUC [Same State 1 - Mod of Vinnie Gere v.4] (puzzle: Same State 1) | – | – | – | 137 nM | 45.5 nM | 52.6 nM |
| UGCUAGUGGGUAGGAUAUUUAGGAUAUGCGGAAGACUAAGUCUGUAGGUCACCUAACGCAGAAGGAGAGAAGGACCCUUCAGCU [pwkr ssNG2 2FMN + F9.29] (Eterna round: R96, puzzle: Same State NG 2) | 16.8 nM | 143 nM | 12.8 nM | – | – | – |
